Measurements as given in patent US20170058005A1 (priority 2014, published 2017).
“Also recorded” adds a separate entry of the source.

Tests used:
DRB1*0101 (DR1) = DRB1*0101 (DR1) (Homo sapiens, UniProt P01903+P01911, A100R/D57E/F55L/F60I/F76Y/I96L/L162R/M171V/P40L/Q125E/R42F/V115G/Y59C); format: binding
DRB1*0301 (DR3) = DRB1*0301 (DR3) (Homo sapiens, UniProt P01903+P01911, A100K/A102G/A103R/A169T/F55Y/I96L/K41T/L162R/M171V/P40S/Q125H/Q178H/Q39Y/R42S/S66N/T106N/T262R/W38E/Y61H); format: binding
DRB1*0401 (DR4) = DRB1*0401 (DR4) (Homo sapiens, UniProt P01903+P01911, A100K/A169T/F76Y/I96L/K127E/L162R/M171V/N62H/P40V/Q125Y/R42H/S133A/S149N/S66Y/V115G/V209L/W38E); format: binding
DRB1*0701 (DR7) = DRB1*0701 (DR7) (Homo sapiens, UniProt P01903+P01911, A100R/A102G/A103Q/D57E/D86V/E43K/F76Y/K127E/L162R/M171V/P40G/Q125H/Q99D/R33Q/R42Y/R54Q/S133A/S66F/T210M/V115G/Y107V/Y59L/Y89S); format: binding
DRB1*1101 (DR11) = DRB1*1101 (DR11) (Homo sapiens, UniProt P01903+P01911, A100R/A169T/A87E/I96F/K41T/L162R/M171V/P40S/Q125H/Q178H/Q39Y/Q99D/R42S/S66Y/T262R/V115G/W38E); format: binding
DRB1*1301 (DR13) = DRB1*1301 (DR13) (Homo sapiens, UniProt P01903+P01911, A100E/A169T/K41T/L162R/M171V/P40S/Q125H/Q178H/Q39Y/Q99D/R42S/S66N/T262R/W38E/Y61H); format: binding
DRB1*1501 (DR15) = DRB1*1501 (DR15) (Homo sapiens, UniProt P01903+P01911); format: binding
[1] = system: CD4^+ T cells of HLA class II transgenic mice; format: cell-based
human PBMCs = format: cell-based
HLA-DR molecules = format: binding, human

Q: Which results are given for KIYLYENMNINNLTATLGAD?
A: Relative binding affinity of peptide to HLA-DR molecules, DR1 (DRB1*0101 (DR1)): 0.2; Strong relative binding affinity of peptide to HLA-DR molecules, DR1 (DRB1*0101 (DR1)): + (key: +: Strong binding affinity was defined in this study as a relative activity <10); Relative binding affinity of peptide to HLA-DR molecules, DR3 (DRB1*0301 (DR3)): 1; Strong relative binding affinity of peptide to HLA-DR molecules, DR3 (DRB1*0301 (DR3)): + (key: +: Strong binding affinity was defined in this study as a relative activity <10); Relative binding affinity of peptide to HLA-DR molecules, DR4 (DRB1*0401 (DR4)): 0.2; Strong relative binding affinity of peptide to HLA-DR molecules, DR4 (DRB1*0401 (DR4)): + (key: +: Strong binding affinity was defined in this study as a relative activity <10); Relative binding affinity of peptide to HLA-DR molecules, DR7 (DRB1*0701 (DR7)): 5; Strong relative binding affinity of peptide to HLA-DR molecules, DR7 (DRB1*0701 (DR7)): + (key: +: Strong binding affinity was defined in this study as a relative activity <10); Relative binding affinity of peptide to HLA-DR molecules, DR11 (DRB1*1101 (DR11)): 5; Strong relative binding affinity of peptide to HLA-DR molecules, DR11 (DRB1*1101 (DR11)): + (key: +: Strong binding affinity was defined in this study as a relative activity <10); Relative binding affinity of peptide to HLA-DR molecules, DR13 (DRB1*1301 (DR13)): 17; Relative binding affinity of peptide to HLA-DR molecules, DR15 (DRB1*1501 (DR15)): 0.1; Strong relative binding affinity of peptide to HLA-DR molecules, DR15 (DRB1*1501 (DR15)): + (key: +: Strong binding affinity was defined in this study as a relative activity <10); CD4 T cell response in LF immunized HLA transgenics [1]: recognised by all LF immunized HLA transgenics; also recorded: capable of eliciting a T cell response from all the HLA transgenics; also recorded: immunogenic in all three HLA-DR transgenic strains; HLA-restriction based on CD4 T cell response class II HLA transgenics after priming with LF [1]: DR1, DR4, DR15,; also recorded: DQ8, DQ6; Peptide-specific recall response [1]: strongest peptide recall in both groups; T cell recognition in human cohorts (human PBMCs): recognized by a high proportion of naturally infected donors, but not vaccinated individuals; Binding across all HLA-DR alleles assayed (HLA-DR molecules): strong binding affinity across all HLA-DR alleles assayed; Binding to HLA-DR1, DR4 and DR15 (HLA-DR molecules): strong binders to all three HLA-DR alleles
